Molecular target: the molecule itself
Test: ThioflavinT aggregation assay + transmission electron microscopy; 10 µM protein alone, 10 µM ThT, 0.1 M NaCl, 1 mM sodium azide, 20 mM Na phosphate pH 7.5, 37 °C, shaking at 200 rpm with Teflon beads; samples taken for negative-stain TEM at the end of the ThT assay; self-association into aggregates or fibrils

B1: UBQLN2^430–624 (domain or fragment, human)
chain: WLPAFLQQMQNPDTLSAMSNPRAMQALMQIQQGLQTLATEAPGLIPSFTPGVGVGVLGTAIGPVGPVTPIGPIGPIVPFTPIGPIGPIGPTGPAAPPGSTGSGGPTGPTVSSAAPSETTSPTSESGPNQQFIQQMVQALAGANAPQLPNPEVRFQQQLEQLNAMGFLNREANLQALIATGGDINAAIERLLGSQPS
notes: one tryptophan added at the N-terminus with the 6xHis tag (His6-W-); ubiquilin-2 (UBQLN2, PLIC-2), residues 430-624, from the fourth STI1 motif to the end of the protein, includes the PXX domain and the UBA domain; Plasmid pET3a-His6-W-UBQLN2^430–624 bought from Genscript; also called His6-W-UBQLN2^430–624; C-terminal UBQLN2 construct; source: E. coli Rosetta (DE3), purified (Ni-NTA, flow-through …)
binding result: binds

B2: UBQLN4^444–601 (domain or fragment, human)
chain: WLPVFLQQMQNPESLSILTNPRAMQALLQIQQGLQTLQTEAPGLVPSLGSFGISRTPAPSAGSNAGSTPEAPTSSPATPATSSPTGASSAQQQLMQQMIQLLAGSGNSQVQTPEVRFQQQLEQLNSMGFINREANLQALIATGGDINAAIERLLGSQLS
notes: one tryptophan added at the N-terminus with the 6xHis tag (His6-W-); also called C-terminal UBQLN4 construct; source: E. coli Rosetta (DE3), purified (Ni-NTA, dialysis); not shown: His6, N-terminal, kept
binding result: binds

B3: UBA^581–624 (domain or fragment, human)
chain: WRFQQQLEQLNAMGFLNREANLQALIATGGDINAAIERLLGSQPS
notes: one tryptophan added at the N-terminus with the 6xHis tag (His6-W-); ubiquilin-2 (UBQLN2), UBA domain, residues 581-624; The methods on expression and purification name only the three longer constructs; also called His6-W-UBQLN2^581–624(UBA); isolated UBA domain from UBQLN2; source: recombinant, plasmid for bacterial expression (pET3a)
binding result: binds

B4: UBQLN1^438–589 (domain or fragment, human)
chain: WLPTFLQQMQNPDTLSAMSNPRAMQALLQIQQGLQTLATEAPGLIPGFTPGLGALGSTGGSSGTNGSNATPSENTSPTAGTTEPGHQQFIQQMLQALAGVNPQLQNPEVRFQQQLEQLSAMGFLNREANLQALIATGGDINAAIERLLGSQPS
notes: one tryptophan added at the N-terminus with the 6xHis tag (His6-W-); also called C-terminal UBQLN1 construct; source: E. coli Rosetta (DE3), purified (Ni-NTA, dialysis); not shown: His6, N-terminal, kept
binding result: binds

From publication PMC7801659, “Shared and divergent phase separation and aggregation properties of brain-expressed ubiquilins” (Scientific Reports, 2021)
